The source of these data is the supplement of paper PMC10598134.

The nature of series [1]: collision cross section of unmodified peptide (TIMS, N2, iRT-aligned); higher = larger / more extended gas-phase ion. How it is done: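 Unmodified synthetic counterpart peptides (ProteomeTools / JPT), analysed by nanoLC-TIMS-QTOF (dda-PASEF). 1/K0 was aligned run-wise to spiked iRT peptides and converted to CCS in N2 (Mason-Schamp). Values are the mean of 1-3 technical replicates for the most abundant feature at each charge state. The same unmodified peptide is repeated across rows and is averaged.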

A short description of series [2]: collision cross section of modified peptide (TIMS, N2, iRT-aligned); higher = larger / more extended gas-phase ion. The essentials:
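Synthetic peptide pools (~100 fmol/µL in 2% acetonitrile/0.1% formic acid, iRT standard spiked 1:40) were separated on a 120-min nanoflow C18 gradient at 60 °C. They were analysed on a timsTOF Pro/HT (dda-PASEF, nitrogen, ~2.4 mbar) and identified with MaxQuant. 1/K0 was calibrated with three reference ions and aligned run-wise to the median iRT peptide deviation. Collision cross section came from the Mason-Schamp equation, averaging 1–3 technical replicates of the most abundant feature per charge state.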

[3] abbreviates: charge state: 3, modification: Trimethyl (K).
[4] abbreviates: charge state: 2, modification: Malonyl.
Where [5] appears, read: charge state: 3, modification: Malonyl.
The mark [6] stands for this setting: charge state: 2, modification: Dimethyl (K).
[7] abbreviates: charge state: 3, modification: Dimethyl (K).
Setting [8] is: charge state: 2, modification: Glutarylation.
The mark [9] stands for this setting: charge state: 3, modification: Glutarylation.
Where [10] appears, read: charge state: 2, modification: Methyl (K).
The mark [11] stands for this setting: charge state: 3, modification: Methyl (K).
[12] abbreviates: charge state: 2, modification: Succinyl.
The mark [13] stands for this setting: charge state: 3, modification: Succinyl.
[14] abbreviates: charge state: 2, modification: Phospho (Y).
[15] abbreviates: charge state: 2, modification: Butyryl.
The mark [16] stands for this setting: charge state: 2, modification: Methyl (R).
Setting [17] is: charge state: 3, modification: Methyl (R).

± gives the standard deviation.

Take AAGQPYEQHAK: the collision cross section in series [1] (charge state: 2) was 373.09 ± 0.48 Å²; in series [1] (charge state: 3) it was 423.62 ± 1.7 Å².

With YSTSGSSGLTTGK, the collision cross section in series [1] (charge state: 2) is on record as 373.3 ± 0.54 Å².

As to GGSGGRGVSVSSAR, the figures for the collision cross section in series [1] (charge state: 2) and in series [1] (charge state: 3) were 376.75 ± 1.3 Å² and 456.24 ± 1.8 Å², respectively.

Take SISQSISGQK: the collision cross section in series [1] (charge state: 2) is 337.94 ± 0.14 Å².

In turn, FGVEAFSDCLR returned a collision cross section in series [1] (charge state: 2) of 384.72 ± 0.67 Å².

Consider FPGVGVLPGVPTGAGVKPK, for which the collision cross section in series [1] (charge state: 2) was 467.47 ± 1.8 Å²; in series [1] (charge state: 3), 560.63 ± 0.35 Å².

YTCSFCGK: in series [1] (charge state: 2), the collision cross section stood at 338.71 ± 0.48 Å².

As for LGNDFHTNKR, the collision cross section in series [1] (charge state: 2) is reported as 369.4 ± 1.5 Å²; in series [1] (charge state: 3) it was 431.93 ± 3.7 Å².

For LQAAYAGDKADDIQK, the figures for the collision cross section in series [1] (charge state: 2) and in series [1] (charge state: 3) were 429.74 ± 2.5 Å² and 497.53 ± 4.8 Å², respectively.

“ASNAAVKLAESK [_ASNAAVK(Trimethyl (K))LAESK_]”: the collision cross section was determined as 392.01 ± 0.62 Å² in series [2] (charge state: 2, modification: Trimethyl (K)) and 456.46 ± 2.4 Å² in series [2] (setting [3]).

“LEKTIDDLEEK [_LEK(hydroxyisobutyryl)TIDDLEEK_]”: the collision cross section in series [2] (charge state: 2, modification: hydroxyisobutyryl) is on record as 411.13 ± 0.32 Å².

“VPTTEKPTVTVNFR [_VPTTEK(Malonyl)PTVTVNFR_]”: the collision cross section in series [2] (setting [4]) was 427.18 ± 3.1 Å²; in series [2] (setting [5]), 511.14 ± 0.89 Å².

For the sequence “SSGPGGQNVNKVNSK [_SSGPGGQNVNK(Dimethyl (K))VNSK_]”, the collision cross section is 397.16 ± 1.7 Å² in series [2] (setting [6]) and 437.57 ± 2.1 Å² in series [2] (setting [7]).

For the sequence “DAEAAEATAEGALKAEK [_DAEAAEATAEGALK(Gluratylation)AEK_]”, the collision cross section in series [2] (setting [8]) is 438.1 ± 0.96 Å²; in series [2] (setting [9]) it was 545.34 ± 0.13 Å².

Turning to “YEEIVKEVSTYIK [_YEEIVK(Methyl (K))EVSTYIK_]”, the collision cross section in series [2] (setting [10]) turned out to be 440.62 ± 1.8 Å²; in series [2] (setting [11]), 492.07 ± 3.2 Å².

Take GAEKTEVAEPR [_GAEK(Crotonyl)TEVAEPR_]: the collision cross section in series [2] (charge state: 2, modification: Crotonyl) is 370.18 ± 9 Å².

For “AAINQKLIETGER [_AAINQK(Succinyl)LIETGER_]”, the values for the collision cross section in series [2] (setting [12]) and in series [2] (setting [13]) were 409.41 ± 0.25 Å² and 475.95 ± 0.68 Å², respectively.

Turning to CYYGSDTAGR [_CY(Phospho (Y))YGSDTAGR_], in series [2] (setting [14]), the collision cross section worked out at 358.39 Å².

On to “VLTANSNPSSPSAAKR [_VLTANSNPSSPSAAK(Butyryl)R_]”, for which the collision cross section is 432.84 ± 1.8 Å² in series [2] (setting [15]) and 531.28 ± 2.7 Å² in series [2] (charge state: 3, modification: Butyryl).

For RGATPPAPPR [_R(Methyl (R))GATPPAPPR_], the collision cross section is 338.68 ± 2.1 Å² in series [2] (setting [16]) and 463.88 ± 2.9 Å² in series [2] (setting [17]).

On to PGTPAGYGRGR [_PGTPAGYGR(Methyl (R))GR_], for which the collision cross section in series [2] (setting [16]) is reported as 362.47 ± 6.7 Å²; in series [2] (setting [17]), 449.19 ± 8.3 Å².

In series [2] (setting [15]), IQTKAGEATVK [_IQTK(Butyryl)AGEATVK_] gave a collision cross section of 371.66 ± 1.8 Å².

As to SPDEAYAIAKK [_SPDEAYAIAK(Biotin)K_], the collision cross section in series [2] (charge state: 2, modification: Biotin) was found to be 394.29 ± 1.1 Å².

In the case of “VSPASSVDSNIPSSQGYKK [_VSPASSVDSNIPSSQGYK(Gluratylation)K_]”, the collision cross section in series [2] (setting [8]) is 466.49 ± 3 Å²; in series [2] (setting [9]) it was 552.93 ± 0.14 Å².

As for “AAINQKLIETGER [_AAINQK(Methyl (K))LIETGER_]”, the values for the collision cross section in series [2] (setting [10]) and in series [2] (setting [11]) were 414.21 ± 2.1 Å² and 471.88 ± 4.4 Å², respectively.

For the sequence “GPQNATDSYVHK [_GPQNATDSY(Phospho (Y))VHK_]”, the collision cross section in series [2] (setting [14]) was found to be 396.29 ± 0.77 Å²; in series [2] (charge state: 3, modification: Phospho (Y)) it was 452.94 ± 1.8 Å².

In series [2] (setting [3]), “VSPASSVDSNIPSSQGYKK [_VSPASSVDSNIPSSQGYK(Trimethyl (K))K_]” registered a collision cross section of 548.09 ± 0.9 Å².

For “IGNSYFKEEK [_IGNSYFK(Gluratylation)EEK_]”, the collision cross section in series [2] (setting [8]) worked out at 381.23 ± 0.61 Å².

As to “GSLGAQKLANTCFNEIEK [_GSLGAQK(Malonyl)LANTCFNEIEK_]”, the values for the collision cross section in series [2] (setting [4]) and in series [2] (setting [5]) were 466.18 Å² and 511.38 Å², respectively.

In series [2] (charge state: 2, modification: Formyl), TLDEILQEKK [_TLDEILQEK(Formyl)K_] displayed a collision cross section of 372.98 ± 1.9 Å².

“SKHLQEQLNELK [_SK(GlyGly (K))HLQEQLNELK_]”: the collision cross section is on record as 420.45 ± 1.4 Å² in series [2] (charge state: 2, modification: GlyGly (K)) and 495.28 ± 2 Å² in series [2] (charge state: 3, modification: GlyGly (K)).

Turning to “AGPNASIISLKSDK [_AGPNASIISLK(Dimethyl (K))SDK_]”, the collision cross section stood at 413.93 ± 1.1 Å² in series [2] (setting [6]) and 484.65 ± 1.6 Å² in series [2] (setting [7]).

As for “IVFSGNLFQHQEDSKK [_IVFSGNLFQHQEDSK(Succinyl)K_]”, the collision cross section is on record as 493.41 ± 1 Å² in series [2] (setting [12]) and 524.55 ± 2 Å² in series [2] (setting [13]).

On to “GDTGLPGPQGIPGGVGSPGR [_GDTGLPGPQGIPGGVGSP(Hydroxyproline)GR_]”, for which the collision cross section in series [2] (charge state: 3, modification: Hydroxyproline) was 499.06 ± 39 Å².
